In patent publication US20190135932A1 (Pfizer, published 2019):
Several values for one entry are separate records, joined by “and”; a condition that tells them apart may be missing. Equal values may be shown once. Each block holds one binder with its values, some of them ahead of it.

Tests used:
[1] = target: T1, mouse OX40R on activated mouse T cells (mouse, UniProt P47741 20-272); experiment: FACS, Alexa Fluor 647 conjugated antibody on activated T cells
T1 construct: whole, on cells; also called mouse cells; murine OX40R
T1 sequence (looked up): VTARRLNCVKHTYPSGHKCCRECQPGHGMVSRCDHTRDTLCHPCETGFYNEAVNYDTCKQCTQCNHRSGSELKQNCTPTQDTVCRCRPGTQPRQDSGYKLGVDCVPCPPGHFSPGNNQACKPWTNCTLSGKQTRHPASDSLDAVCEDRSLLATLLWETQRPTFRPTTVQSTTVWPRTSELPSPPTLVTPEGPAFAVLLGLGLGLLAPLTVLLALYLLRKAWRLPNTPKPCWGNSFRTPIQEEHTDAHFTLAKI
Protocol: (§1) Rat whole blood collected in heparinized syringes was diluted 1:3 in warm HBSS. Next, 5 mls was carefully layered over an equal volume of Lympholyte-Rat (Cedarlane Laboratories, Westbury, N.Y.). The tubes were centrifuged for 20 minutes at 1500 RPM. The PBMCs interface was collected, washed twice and the cell pellet was re-adjusted to 2×10⁶/ml in TCM. Two mls of cells were added to each well of a 24 well plate and stimulated for 24-48 hours with PHA (Remel, Lenexa, Kans.) at 10 ng/ml prior to flow cytometry staining.
(§2) Stimulated mouse, rat, rabbit, dog and cynomolgus PBMCs and the 300-19 cell line expressing the cynomolgus OX40 receptor were used to test for human OX40 antibody species cross-reactivity. Human OX40 expressing activated T lymphocytes and OX40 transduced 300-19 cells were used as positive controls. Cells (5.0×10⁵/tube) were washed once in cold wash buffer (PBS, 2% FBS and 0.02% sodium azide) and 100 μl/tube of Alexa Fluor 647 conjugated control or OX40 reactive antibodies at 5 ug/ml was added to each tube. The antibodies were labeled using an Alex Fluor 647 protein labeling kit as described by the manufacturer (Molecular Probes, Eugene, Oreg.). […] Antibody staining was measured and analyzed using a Becton Dickinson FACSCalibur and CellQuest software (San Jose, Calif.).

[2] = target: T2, rat OX40R on activated rat T cells (rat, UniProt P15725 20-271); experiment: as above
T2 construct: whole, on cells; also called rat cells
T2 sequence (looked up): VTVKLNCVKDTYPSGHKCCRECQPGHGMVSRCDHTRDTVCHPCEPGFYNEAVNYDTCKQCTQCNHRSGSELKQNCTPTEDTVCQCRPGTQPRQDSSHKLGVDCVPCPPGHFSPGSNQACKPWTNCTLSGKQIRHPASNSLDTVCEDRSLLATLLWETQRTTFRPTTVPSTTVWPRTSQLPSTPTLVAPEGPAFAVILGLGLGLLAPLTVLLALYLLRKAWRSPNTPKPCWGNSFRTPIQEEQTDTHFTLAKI
Protocol: as §1, §2

[3] = target: T3, recombinant human OX40-CD40 fusion construct (amino acids 1-235 of OX40, 216-278 of CD40) expressed on 300-19 … (human, UniProt P43489 29-235; P25942 216-277); experiment: FACS saturation binding on OX40R+ 300-19 cells (N = 2)
T3 construct: range 1-235;range 216-278; also called OX40R+ 300-19 cells; OX40R transfected cells
T3 sequence (looked up): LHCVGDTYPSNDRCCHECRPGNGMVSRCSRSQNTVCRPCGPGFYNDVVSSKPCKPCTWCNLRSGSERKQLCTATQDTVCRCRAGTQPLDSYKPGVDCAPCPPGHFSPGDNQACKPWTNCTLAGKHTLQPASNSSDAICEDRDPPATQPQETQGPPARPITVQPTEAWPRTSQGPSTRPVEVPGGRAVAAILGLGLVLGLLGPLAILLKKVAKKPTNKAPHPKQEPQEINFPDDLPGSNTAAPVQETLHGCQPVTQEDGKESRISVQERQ
Protocol: (§3) OX40R-expressing cell lines (see below) or activated primary peripheral blood mononuclear cells (see below) were used to assess binding on both the human and cynomolgus OX40 receptors. Cells were harvested and washed (5×10⁵/tube) using wash buffer at RT°. The wash buffer consisted of PBS, 2% heat-inactivated fetal bovine serum (Hyclone, Logan, Utah) and 0.02% sodium azide (Sigma, St. Louis, Mo.). Next, 100 μl of various concentrations of antibody was added to the cells (starting at 30 ug/ml and using a 3-fold titration) diluted in wash buffer containing 0.005 mg/ml of cytocholasin B (Sigma, St. Louis, Mo.). The cells were gently rocked at RT° for 3 hours. Next, the cells were washed twice and resuspended in 0.5 ml/tube with cold wash buffer and 10,000 events were collected and analyzed using a Becton Dickinson FACSCalibur and CellQuest software (San Jose, Calif.).

[4] = target: T4, human OX40R on activated primary human T cells (human, UniProt P43489 29-277); experiment: FACS saturation binding on CD3/CD28 stimulated human T cells (N = 4)
T4 construct: whole, on cells; also called CD3/CD28 stimulated T cells; human PBMC's stimulated with anti-CD3 and anti-CD28
T4 sequence (looked up): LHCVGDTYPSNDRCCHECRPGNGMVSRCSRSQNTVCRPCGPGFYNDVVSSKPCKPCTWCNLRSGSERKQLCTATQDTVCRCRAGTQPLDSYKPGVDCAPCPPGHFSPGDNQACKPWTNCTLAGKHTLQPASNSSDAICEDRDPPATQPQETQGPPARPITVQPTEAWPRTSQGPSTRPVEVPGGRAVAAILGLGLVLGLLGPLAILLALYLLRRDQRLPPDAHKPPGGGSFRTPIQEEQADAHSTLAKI
Protocol: as §3
Human whole blood was collected into heparinized syringes (Baxter; Deerfield, Ill.) and then immediately transferred to Sigma Accuspin tubes (Sigma, St. Louis, Mo.) for the isolation of peripheral blood mononuclear cells (PBMC) as described by the manufacturer. The PBMC were washed twice with DPBS and T lymphocytes were isolated using a T cell purification column as described by the manufacturer (R & D Systems, Minneapolis, Minn.). […]

binding result [1]: no binding (tested: 5 ug/ml)
binding result [2]: no binding (tested: 5 ug/ml)
B1: human monoclonal antibody 11D4 (antibody, V domains shown)
VH: EVQLVESGGGLVQPGGSLRLSCAASGFTFSSYSMNWVRQAPGKGLEWVSYISSSSSTIDYADSVKGRFTISRDNAKNSLYLQMNSLRDEDTAVYYCARESGWYLFDYWGQGTLVTVSS
VL: DIQMTQSPSSLSASVGDRVTITCRASQGISSWLAWYQQKPEKAPKSLIYAASSLQSGVPSRFSGSGSGTDFTLTISSLQPEDFATYYCQQYNSYPPTFGGGTKVEIKR
notes: IgG2 heavy chain, kappa light chain; allotypes G2(n-) and Km3; Alexa Fluor 647 conjugate was used in the species cross-reactivity FACS

EC50 [3]: 0.24 µg/mL and 1.66 nM
EC50 [4]: 1.06 µg/mL and 7.3 nM
B2: human monoclonal antibody 18D8 (antibody, human IgG2, kappa, V domains shown)
VH: EVQLVESGGGLVQPGRSLRLSCAASGFTFDDYAMHWVRQAPGKGLEWVSGISWNSGSIGYADSVKGRFTISRDNAKNSLYLQMNSLRAEDTALYYCAKDQSTADYYFYYGMDVWGQGTTVTVSS
VL: EIVVTQSPATLSLSPGERATLSCRASQSVSSYLAWYQQKPGQAPRLLIYDASNRATGIPARFSGSGSGTDFTLTISSLEPEDFAVYYCQQRSNWPTFGQGTKVEIKR
